Results on two molecules are retold here after publication PMC9456098, “Crystal Structure of the Recombination Mediator Protein RecO from Campylobacter jejuni and Its Interaction with DNA and a Zinc Ion”.

Data set [1] deals with cjSSB (Campylobacter jejuni (strain ATCC 33291?)). As to the kind of experiment: fluorescence polarization. The note with it: FP: 20 mM Tris pH 8.0, 30 mM NaCl, 5 mM beta-mercaptoethanol, 0.8 nM fluorescein-ssDNA; temperature not stated; one-site model. (In general: Fluorescence polarisation rises when a labelled molecule tumbles more slowly, as on binding a larger partner.)

In another data set the target is T1, cjRecO (Campylobacter jejuni subsp. jejuni ATCC …, UniProt Q0PC17 1-204).
T1 sequence: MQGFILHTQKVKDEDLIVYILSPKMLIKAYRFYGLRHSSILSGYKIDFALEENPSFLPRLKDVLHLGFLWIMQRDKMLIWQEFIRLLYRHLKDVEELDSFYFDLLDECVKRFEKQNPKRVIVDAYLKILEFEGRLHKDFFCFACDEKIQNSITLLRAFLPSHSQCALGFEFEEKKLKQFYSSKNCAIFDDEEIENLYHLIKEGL
As to the kind of experiment: fluorescence polarization; no saturation up to 100 uM; binding detectable from ~1 uM; Kd stated as at least 20 uM; FP: 20 mM Tris pH 8.0, 30 mM NaCl, 5 mM beta-mercaptoethanol, 0.8 nM fluorescein-ssDNA; temperature not stated; one-site model. The note with it: protein: recombinant; tags: N-terminal His6 removed by thrombin (tag-free); single strand.

On to “TTATAGGCATATAGGAGTAATTTTCTTGGGCTATGCAGTA [40-mer ssDNA]”, for which the equilibrium dissociation constant (Kd) in data set [1] was 21.4 nM.
Take TTATAGGCATATAGGAGTAATTTTCTTGGGCTATGCAGTA (ssDNA) [40-mer ssDNA]: the dissociation constant Kd with cjRecO is > 20000 nM.

In general, Kd refers to the constant that tells how readily two partners part at equilibrium.
